Reference: publication PMC4441819

Biological target: CH67 Fab, critical dipeptide VD changed to MD (human)
Assay: BLI

“HA A/Solomon Islands/03/2006 globular head (from UniProt A7Y8I1) (domain or fragment)” showed a Kd of 8.5 µM, a koff of 0.00478 s⁻¹ and a kon of 56200 M⁻¹ s⁻¹.
